From publication PMC3281842, “Crystal Structure of TDRD3 and Methyl-Arginine Binding Characterization of TDRD3, SMN and SPF30” (PLoS ONE, 2012) come the findings set out here.

Square brackets hold non-standard residues; d marks the D form. Ends that are not written are not given here. Arg(Me2a) = CN(C)C(=N)NCCC[C@H](N)C(=O)O; Arg(Me2s) = CN=C(NC)NCCC[C@H](N)C(=O)O; Arg(Me) = CNC(=N)NCCC[C@H](N)C(=O)O

Common to all, as to settings: both partners purified
In assay [1] the target is T1, TDRD3 (aa 520–633) (human, UniProt Q9H7E2 520-633).
T1 construct: cloned into the pET28-MHL vector; also called Tudor domain-containing protein 3; source: E. coli BL21 (DE3), purified (Ni-NTA, size exclusion chromatography)
The assay is described as follows: ITC; 20 mM Tris pH 8.0, 200 mM NaCl; 25°C; one-site binding model. In general terms: In ITC the heat of successive injections is recorded.

The next assay addresses T2, SMN (aa 80–170) (human, UniProt Q16637 80-170).
T2 construct: Survival motor neuron protein (SMN), human, residues 80-170, covers the Tudor domain; cloned into the pET28-MHL vector; also called Survival motor neuron protein; source: E. coli BL21 (DE3), purified (Ni-NTA, size exclusion chromatography)
Nature of the assay: fluorescence polarisation; fluorescein-labeled peptides; 20 mM Tris pH 7.5, 50 mM NaCl, 1 mM DTT, 0.01% Triton X-100; 25°C; one-site binding model; Kd the average of three independent measurements.

Assay [2] deals with T1, TDRD3 (aa 520–633). Described as above.
The target of another assay is T3, SPF30 (aa 65–150) (human, UniProt O75940 65-150).
T3 construct: Splicing factor 30 kDa (SPF30, SMNDC1), human, residues 65-150, covers the Tudor domain; cloned into the pET28-MHL vector; also called Splicing factor 30 kDa; SMNDC1; source: E. coli BL21 (DE3), purified (Ni-NTA, size exclusion chromatography)
T3 sequence (looked up): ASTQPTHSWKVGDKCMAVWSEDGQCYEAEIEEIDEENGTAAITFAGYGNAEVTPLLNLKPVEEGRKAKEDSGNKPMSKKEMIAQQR
The assay is described as above.

Assay [3] addresses T4, SMN construct covering only the Tudor domain (residues 82–147) (human, UniProt Q16637 82-147).
T4 construct: Survival motor neuron protein (SMN), human, residues 82-147, only the Tudor domain; also called SMN Tudor domain; source: E. coli BL21 (DE3), purified (Ni-NTA, size exclusion chromatography)
The assay is described as above.

The target in a further assay is T5, SND1 (aa 650–910) (UniProt Q7KZF4 650-910).
T5 construct: SND1, residues 650-910, extended Tudor domain; also called extended Tudor domain of SND1
T5 sequence (looked up): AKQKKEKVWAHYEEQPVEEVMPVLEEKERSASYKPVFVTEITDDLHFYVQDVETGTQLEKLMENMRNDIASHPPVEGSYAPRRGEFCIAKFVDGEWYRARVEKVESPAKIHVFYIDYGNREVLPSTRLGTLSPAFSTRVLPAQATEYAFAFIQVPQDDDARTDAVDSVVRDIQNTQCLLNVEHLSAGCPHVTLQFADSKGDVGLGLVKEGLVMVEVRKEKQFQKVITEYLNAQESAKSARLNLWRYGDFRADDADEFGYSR
The assay is described as above.

T2 sequence (Q16637 80-170): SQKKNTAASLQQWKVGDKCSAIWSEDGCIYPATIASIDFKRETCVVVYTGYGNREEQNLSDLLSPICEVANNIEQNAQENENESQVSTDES
T4 sequence (Q16637 82-147): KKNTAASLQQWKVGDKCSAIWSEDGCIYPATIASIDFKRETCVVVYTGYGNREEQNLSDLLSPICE

B1: PIWIL1_R4me2a peptide (TGRme2aARARA) (peptide)
peptide: TG[Arg(Me2a)]ARARA
notes: N-terminal GAR motif stretch of PIWIL1, R4 asymmetrically dimethylated; also called PIWIL1_R4me2a peptide of the ITC measurement; source: synthetic peptide (Tufts University Core Services)
With B1, the binding result with TDRD3 (aa 520–633) [1] is recorded as “binds”.

B2: PGM(SmB214SD) (peptide)
peptide: PPGM[Arg(Me2s)]PPPPG
modifications: also: fluorescein label, position not given here
notes: PGM motif stretch of the splicing protein SmB; also called sDMA PGM motif peptide from SmB; source: synthetic peptide (Tufts University Core Services)
Regarding B2, in the assay with SMN (aa 80–170), the Kd – broadly, the free concentration of one partner at which half of the binding sites on the other are occupied at equilibrium, for simple one-to-one binding – is > 400 µM.

B3: PIWIL1-R4me1 (peptide)
peptide: TG[Arg(Me)]ARARARGRARGQE
modifications: also: fluorescein label, position not given here
notes: N-terminal GAR motif stretch of PIWIL1, R4 monomethylated; also called monomethylated PIWIL1 peptide; source: synthetic peptide (Tufts University Core Services)
Regarding B3, the equilibrium dissociation constant (Kd) with TDRD3 (aa 520–633) [2] is > 500 µM; with SMN (aa 80–170), > 150 µM; in the assay with SPF30 (aa 65–150), > 500 µM.

B4: PIWIL1-R4me2a (peptide)
peptide: TG[Arg(Me2a)]ARARARGRARGQE
modifications: also: fluorescein label, position not given here
notes: N-terminal GAR motif stretch of PIWIL1, R4 asymmetrically dimethylated; also called asymmetrical dimethylated PIWIL1 peptide; source: synthetic peptide (Tufts University Core Services)
In the case of B4, the Kd is > 150 µM with TDRD3 (aa 520–633) [2], 97 ± 3 µM in the assay with SMN (aa 80–170) and > 400 µM in the assay with SPF30 (aa 65–150).

B5: PIWIL1-R4me2s (peptide)
peptide: TG[Arg(Me2s)]ARARARGRARGQE
modifications: also: fluorescein label, position not given here
notes: N-terminal GAR motif stretch of PIWIL1, R4 symmetrically dimethylated; also called symmetrical dimethylated peptide of the PIWIL1 protein; source: synthetic peptide (Tufts University Core Services)
As to B5, the Kd was 46 µM in assay [3], > 300 µM in the assay with TDRD3 (aa 520–633) [2], 34 ± 2 µM with SMN (aa 80–170) and > 200 µM with SPF30 (aa 65–150).

B6: H3R2me1 (peptide)
peptide: A[Arg(Me)]TKQTARKSY
modifications: also: fluorescein label, position not given here
notes: histone H3 N-terminal tail; C-terminal tyrosine printed at the end of the peptide; also called histone H3R2 peptide, monomethylated; source: synthetic peptide (Tufts University Core Services)
For B6, the Kd in the assay with SMN (aa 80–170) and with SND1 (aa 650–910) was > 300 µM in each case.

B7: H3R2me2a (peptide)
peptide: A[Arg(Me2a)]TKQTARKSY
modifications: also: fluorescein label, position not given here
notes: histone H3 N-terminal tail; C-terminal tyrosine printed at the end of the peptide; also called histone H3R2 peptide, asymmetrically dimethylated; source: synthetic peptide (Tufts University Core Services)
For B7, the Kd with SMN (aa 80–170) was > 200 µM; with SND1 (aa 650–910), > 300 µM.

B8: PGM(SmB221SD) (peptide)
peptide: PPGM[Arg(Me2s)]GPPP
modifications: also: fluorescein label, position not given here
notes: as for B2
On to B8, for which the Kd with SMN (aa 80–170) was > 500 µM.

B9: PGM(SmB165SD) (peptide)
peptide: YPPG[Arg(Me2s)]GGPPP
modifications: also: fluorescein label, position not given here
notes: as for B2
B9: the Kd was > 300 µM with SMN (aa 80–170) and > 500 µM in the assay with SND1 (aa 650–910).

B10: PIWIL1-R4un (peptide)
peptide: TGRARARARGRARGQE
modifications: also: fluorescein label, position not given here
notes: N-terminal GAR motif stretch of PIWIL1, unmethylated; also called unmethylated PIWIL1 peptide; source: synthetic peptide (Tufts University Core Services)
Take B10: the Kd in the assay with TDRD3 (aa 520–633) [2] was > 500 µM; in the assay with SMN (aa 80–170), > 300 µM; in the assay with SPF30 (aa 65–150) it was > 500 µM.

B11: H3R2me2s (peptide)
peptide: A[Arg(Me2s)]TKQTARKSY
modifications: also: fluorescein label, position not given here
notes: histone H3 N-terminal tail; C-terminal tyrosine printed at the end of the peptide; also called histone H3R2 peptide, symmetrically dimethylated; source: synthetic peptide (Tufts University Core Services)
As for B11, in the assay with SMN (aa 80–170), the Kd is > 150 µM.

B12: SmD3RSDMA (peptide)
peptide: GGRG[Arg(Me2s)]GRG
modifications: also: fluorescein label, position not given here
notes: GAR motif peptide named after SmD3; also called SmD3 peptide; source: synthetic peptide (Tufts University Core Services)
As to B12, the results for the Kd in the assay with TDRD3 (aa 520–633) [2], with SMN (aa 80–170) and with SND1 (aa 650–910) were > 400 µM, 94 ± 4 µM and 56 ± 8 µM, respectively.
